Measured values taken from publication PMC2731736, “cGMP-dependent protein kinase Iα associates with the antidepressant-sensitive serotonin transporter and dictates rapid modulation of serotonin uptake” (Molecular Brain, 2009).

Key:
[1] = molecular target: T1, cGMP-dependent protein kinase II (PKGII), recombinant (UniProt Q13237 1-762); test: kinase inhibition assay (Ki from enzyme kinetics); purified recombinant kinases with multiple concentrations of DT-2; saturating peptide substrate …; PKG isoforms activated with 1 μM cGMP; PKC activated with 50 μg/μL phospholipids and 100 ng/mL 12-O-tetradecanoylphorbol-13-acetate; details: both partners purified
T1 construct: cGMP-dependent protein kinase II; also called cGK2; source: insect cell cultures, Bacmid baculovirus expression system, purified to apparent homogeneity
T1 sequence (looked up): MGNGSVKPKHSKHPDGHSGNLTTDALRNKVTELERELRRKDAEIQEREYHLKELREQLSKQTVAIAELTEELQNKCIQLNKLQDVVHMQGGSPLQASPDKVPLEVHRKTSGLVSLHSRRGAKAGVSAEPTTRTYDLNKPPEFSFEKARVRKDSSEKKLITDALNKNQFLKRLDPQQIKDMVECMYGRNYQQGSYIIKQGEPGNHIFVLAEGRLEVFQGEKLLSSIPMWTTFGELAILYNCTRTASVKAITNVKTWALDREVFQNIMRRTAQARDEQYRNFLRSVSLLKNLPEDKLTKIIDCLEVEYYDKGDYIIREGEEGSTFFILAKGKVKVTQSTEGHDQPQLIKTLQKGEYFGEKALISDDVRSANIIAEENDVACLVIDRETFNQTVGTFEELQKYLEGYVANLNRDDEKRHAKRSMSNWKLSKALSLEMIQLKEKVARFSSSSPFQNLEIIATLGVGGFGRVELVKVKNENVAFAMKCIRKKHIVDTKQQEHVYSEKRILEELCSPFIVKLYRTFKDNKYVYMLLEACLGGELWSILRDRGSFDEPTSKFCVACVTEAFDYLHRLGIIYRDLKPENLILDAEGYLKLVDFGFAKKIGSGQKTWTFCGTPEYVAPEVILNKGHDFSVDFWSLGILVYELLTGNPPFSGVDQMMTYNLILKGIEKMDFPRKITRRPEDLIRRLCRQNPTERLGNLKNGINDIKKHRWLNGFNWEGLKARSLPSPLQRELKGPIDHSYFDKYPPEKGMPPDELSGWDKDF

[2] = molecular target: T2, Recombinant protein kinase Cα (PKCα, human) (human, UniProt P17252 1-672); test: as above; details: both partners purified
T2 construct: protein kinase C alpha, human, recombinant; source: bought: Calbiochem

B1: DT-2 (peptide)
peptide: YGRKKRRQRRRPPLRKKKKKH
notes: also called peptide DT-2
- Ki [1]: 9.1 µM
- Ki [2]: 0.0266 µM
